Experimental data as given in article PMC13042608, “Cross‐Platform Biosensing of Immune Receptors Using Peptide‐Functionalized Graphene” (Advanced Science, 2025).
Non-standard residues stand in square brackets, D forms with d. No end group written: not given here.

Target: T1, WKYMVm‐NH2
T1 construct: synthetic hexapeptide agonist of formyl peptide receptors; also called W‐peptide; target peptide; source: synthetic peptide (custom peptide synthesis, purity >95%)
T1 peptide: WKYMV[dM]-NH2
Experiment: SPR; graphene-enhanced MP-SPR; peptide immobilised on PBA-graphene by amine coupling; nucleofected HEK293T cells (≈100 cells mL^-1) injected at 10 µL min^-1 for 20 min in C1 buffer pH 7.4; 22 °C
Details: one partner purified

B1: Formyl peptide receptor 2 (FPR2) on transfected HEK293T cells (receptor, human, UniProt P25090 1-351, looked up)
chain: METNFSTPLNEYEEVSYESAGYTVLRILPLVVLGVTFVLGVLGNGLVIWVAGFRMTRTVTTICYLNLALADFSFTATLPFLIVSMAMGEKWPFGWFLCKLIHIVVDINLFGSVFLIGFIALDRCICVLHPVWAQNHRTVSLAMKVIVGPWILALVLTLPVFLFLTTVTIPNGDTYCTFNFASWGGTPEERLKVAITMLTARGIIRFVIGFSLPMSIVAICYGLIAAKIHKKGMIKSSRPLRVLTAVVASFFICWFPFQLVALLGTVWLKEMLFYGKYKIIDILVNPTSSLAFFNSCLNPMLYVFVGQDFRERLIHSLPTSLERALSEDSAPTNDTAANSASPPAETELQAM
notes: formyl peptide receptor 2, human, gene amplified from human genomic DNA and cloned into pcDNA3.1(+); also called HEK FPR2; HEK‐FPR2; source: nucleofection with a GFP plasmid for biosensors), on living cells
SPR signal relative to the Control peptide (f-MEQQNK) surface: ~4 fold
